Measured values reported in publication PMC12521527, “In vivo self-assembled nano-PROTAC for the dual degradation of AR and HSP90 to overcome castration-resistant prostate cancer resistance” (Signal Transduction and Targeted Therapy, 2025).
Numbered stars: 1 amine (or outer) side, 2 acyl side, 3 side chain; on linkers, the order of the positions; unused ones are H or OH. Square brackets hold non-standard residues; d marks the D form. Peptide text beside a SMILES is read from it. * marks the point of attachment. X2 = CC1(C)C(=O)N(c2ccc(C#N)c(C(F)(F)F)c2)C(=S)N1c1ccc(C(=O)*)c(F)c1; X1 = O=C1CCC(N2C(=O)c3cccc(N(CC(=O)[*:2])[*:1])c3C2=O)C(=O)N1; EuK = O=C(O)CC[C@H](NC(=O)N[C@@H](CCCCN*)C(=O)O)C(=O)O; 2Nal = N[C@@H](Cc1ccc2ccccc2c1)C(=O)O

Experiments:
[1] = In vivo biocompatibility in healthy mice; settings: healthy BALB/c mice
Protocol: Fig. 7 In vivo antitumor efficacy of Psa-AR. a Schematic illustration of the tumor inoculation and treatment protocol for 22Rv1 xenograft mice. (n = 6 per group) b Observation of the tumor inhibitory effect on 22Rv1 xenograft mice in PBS, enzalutamide, pimitespib, Enza, Pimi, and Psa-AR (30 mg/kg in 200 μL of PBS) over 20 days of treatment. (Enza, Pimi: Combination therapy with enzalutamide (AR antagonist) and Pimitespib (HSP90 inhibitor)). c Kaplan‒Meier survival curves of 22Rv1 xenograft mice in different groups over 20 days of treatment. d Changes in the body weights of 22Rv1 xenograft mice in different groups over 20 days of treatment. e Terminal deoxynucleotidyl transferase (TdT) dUTP nick-end labeling (TUNEL) staining of tumors after treatment with PBS, enzalutamide, pimitespib, ENZ, Pimi or Psa-AR (30 mg/kg in 200 μL of PBS) for 20 days. Scale bar: 50 μm. f Hematoxylin‒eosin (H&E) staining of the main organs after treatment with PBS or Psa-AR (30 mg/kg in 200 μL of PBS) for 24 h. Scale bar: 50 μm. g–j Blood biochemistry data, including ALT, AST, ALP, TP, ALB, GLOB, BUN, and CRE levels, of the mice after treatment with Psa-AR (20 mg/kg in 200 μL of PBS) for 1 day or 14 days (n = 3 per group). p values were determined via one-way ANOVA followed by post hoc Tukey’s test. The data are presented as the means ± SDs
To thoroughly evaluate the in vivo biocompatibility of the Psa-AR degradation system, we performed comprehensive toxicological assessments in healthy BALB/c mice. At 24 h post-administration of either PBS or Psa-AR (30 mg/kg, n = 3 per group), we collected major organs (heart, liver, spleen, lungs, and kidneys) along with serum samples for histopathological and biochemical analysis. […] These comprehensive biosafety evaluations confirmed that the Psa-AR system maintains exceptional biocompatibility, with no acute toxicity observed in vital organs or systemic metabolic pathways. The combined histopathological and biochemical evidence strongly supports the clinical translatability of this targeted protein degradation platform.

RWPE-1 cells = assay: Cytotoxicity in normal RWPE-1 cells; format: cell-based; settings: PSMA^low normal RWPE-1 cells, 1–100 μM, 48 h of exposure
AR = assay: Western blot AR degradation in 22Rv1 (PSMA^KD) cells; format: cell-based; settings: 20 μM, 48 h
Protocol: All uncropped blots are presented in Supplementary Fig. 26. j, k Representative 22Rv1 cell CLSM images of the degradation of AR after incubation with FITC-labeled Psa-AR for 12 h and quantitative analysis, n = 3 per group. Scale bar: 10 μm. l, m Representative 22Rv1 cell CLSM images of the degradation of HSP90 after incubation with FITC-labeled Psa-AR for 12 h and quantitative analysis, n = 3 per group. Scale bar: 10 μm. n AR-V7 expression in 22Rv1 cells after treatment with PBS, P-AR (20 μM), Psa-AR (20 μM) or Psa-AR (20 μM) combined with MG132 (2 μM) for 48 h, as determined by western blotting. β-Actin was used as an internal reference. o Results of apoptosis in 22Rv1 cells treated with PBS, P-AR (20 μM), or Psa-AR (20 μM) for 48 h, as detected by flow cytometry.
The pretreated cells were resuspended in lysis buffer containing 50 mM Tris-HCl (pH 8.0), 150 mM NaCl, 1% (v/v) Triton X-100, and protease inhibitors. The protein concentration was determined via a BCA kit (Applygen). Each sample ([…]) was subjected to SDS‒PAGE and then transferred to a PVDF membrane. The blots were blocked in 5% (wt/v) blocking buffer. After washing three times with TBST buffer (10 mM TBS solution containing 0.1% (v/v) Tween-20), the blots were incubated with primary antibodies at 4 °C on a shaker for 16 h. […]

## CC1(C)C(=O)N(c2ccc(C#N)c(C(F)(F)F)c2)C(=S)N1c1ccc(C(=O)NCCCC[C@H](NC(=O)CNc2cccc3c2C(=O)N(C2CCC(=O)NC2=O)C3=O)C(=O)N[C@@H](CS)C(=O)N[C@@H](CCC(N)=O)C(=O)N[C@@H](Cc2ccc(O)cc2)C(=O)N[C@@H](CC(N)=O)C(=O)N[C@@H](CCC(N)=O)C(=O)N[C@@H](Cc2ccc(O)cc2)C(=O)N[C@@H](Cc2ccc(O)cc2)C(=O)N[C@@H](Cc2ccc3ccccc3c2)C(=O)NCCCC[C@H](NC(=O)N[C@@H](CCC(=O)O)C(=O)O)C(=O)O)c(F)c1 (some centres unmarked) [Psa-AR] (H-[X1]K(X2)CQYNQYY[2Nal]-EuK)
[1]
  routine blood analysis (WBC, NEU, LYM, RBC, PLT, HGB, MPV): no obvious changes were detected
[1]; 30 mg/kg, 24 h, n = 3
  serum biochemistry (ALT, AST, ALP, TP, ALB, GLOB, BUN, CRE) versus PBS: not significantly different between the groups
[1]; 30 mg/kg, 24 h post-administration, n = 3
  H&E histopathology of major organs (heart, liver, spleen, lungs, kidneys): no observable pathological changes
RWPE-1 cells
  cell viability relative to vehicle controls: above 90%
AR
  AR protein degradation in PSMA-knockdown cells: failed to induce significant protein degradation
